Reference: IntAct's records for PubMed 16511560

B1: Protein Mdm4 (Homo sapiens), O15151 (parent)
chain: MTSFSTSAQCSTSDSACRISPGQINQVRPKLPLLKILHAAGAQGEMFTVKEVMHYLGQYIMVKQLYDQQEQHMVYCGGDLLGELLGRQSFSVKDPSPLYDMLRKNLVTLATATTDAAQTLALAQDHSMDIPSQDQLKQSAEESSTSRKRTTEDDIPTLPTSEHKCIHSREDEDLIENLAQDETSRLDLGFEEWDVAGLPWWFLGNLRSNYTPRSNGSTDLQTNQDVGTAIVSDTTDDLWFLNESVSEQLGVGIKVEAADTEQTSEEVGKVSDKKVIEVGKNDDLEDSKSLSDDTDVEVTSEDEWQCTECKKFNSPSKRYCFRCWALRKDWYSDCSKLTHSLSTSDITAIPEKENEGNDVPDCRRTISAPVVRPKDAYIKKENSKLFDPCNSVEFLDLAHSSESQETISSMGEQLDNLSEQRTDTENMEDCQNLLKPCSLCEKRPRDGNIIHGRTGHLVTCFHCARRLKKAGASCPICKKEIQLVIKVFIA

Variants of: B1
Conditions: with ima4_human KPNA3, O00505
Chain of ima4_human KPNA3, O00505 (O00505 whole entry): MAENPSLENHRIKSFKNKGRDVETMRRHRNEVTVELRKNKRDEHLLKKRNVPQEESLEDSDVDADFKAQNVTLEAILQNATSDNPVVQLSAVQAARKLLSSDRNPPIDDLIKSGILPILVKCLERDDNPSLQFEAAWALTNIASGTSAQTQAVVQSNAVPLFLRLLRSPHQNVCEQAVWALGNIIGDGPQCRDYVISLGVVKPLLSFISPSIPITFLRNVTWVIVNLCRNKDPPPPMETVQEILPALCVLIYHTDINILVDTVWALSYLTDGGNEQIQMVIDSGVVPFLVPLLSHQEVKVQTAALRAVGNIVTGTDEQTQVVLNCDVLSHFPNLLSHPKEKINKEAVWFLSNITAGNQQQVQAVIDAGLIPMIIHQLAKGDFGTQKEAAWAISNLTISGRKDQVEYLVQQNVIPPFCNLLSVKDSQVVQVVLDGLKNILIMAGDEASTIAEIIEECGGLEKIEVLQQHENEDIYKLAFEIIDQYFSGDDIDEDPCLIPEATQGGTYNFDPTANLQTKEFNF

Row | effect of a mutation on the interaction | Variant
1 | disrupting interaction | MTSFSTSAQCSTSDSACRISPGQINQVRPKLPLLKILHAAGAQGEMFTVKEVMHYLGQYIMVKQLYDQQEQHMVYCGGDLLGELLGRQSFSVKDPSPLYDMLRKNLVTLATATTDAAQTLALAQDHSMDIPSQDQLKQSAEESSTSRKRTTEDDIPTLPTSEHKCIHSREDEDLIENLAQDETSRLDLGFEEWDVAGLPWWFLGNLRSNYTPRSNGSTDLQTNQDVGTAIVSDTTDDLWFLNESVSEQLGVGIKVEAADTEQTSEEVGKVSDKKVIEVGKNDDLEDSKSLSDDTDVEVTSEDEWQCTECKKFNSPSKRYCFRCWALRKDWYSDCSKLTHSLSTSDITAIPEKENEGNDVPDCRRTISAPVVRPKDAYIKKENSKLFDPCNSVEFLDLAHSSESQETISSMGEQLDNLSEQRTDTENMEDCQNLLKPCSLCEKRPRDGNIIHGRTGHLVTCFHCARRLEKAGASCPICKKEIQLVIKVFIA [K468E]
